Four molecules from patent US7049080B2, “Process for detecting serine/threonine kinase activity” (priority 2000, dated 2006) can be followed below.

Non-standard residues stand in square brackets, D forms with d. No end group written: not given here. pY = N[C@@H](Cc1ccc(OP(=O)(O)O)cc1)C(=O)O; pT = C[C@@H](OP(=O)(O)O)[C@H](N)C(=O)O

Data set [1] relates to T1, P1° peptide, H-Lys-Phe-Met-Met-Thr-Pro-pTyr-Val-Val-Thr-Arg-NH2.
T1 sequence: KFMMTPYVVTR

For data set [2], the system named is polyclonal phospho-JNK antibody NEB #9251. Description: Binding of polyclonal phospho-JNK antibody to TAMRA-labelled peptides (fluorescence polarization). Details: species or system rabbit. Conditions: control. The source says: The polarization values dramatically increase when using the double-phosphorylated peptide substrate P1*^∘ in contrast to mono-phosphorylated labelled peptide P1^∘ (sequence see above).
Measurement of the Binding Affinity (KD) of Antibody NEB #9251:
This polyclonal antibody detects all three isoforms of the SAPK1/JNK proteins only when they are activated by dual phosphorylation at threonine183/tyrosine185. Binding of poly-clonal phospho-JNK antibody (at a dilution of 1:20) from NEB to TAMRA-labelled P1^∘- and P1*^∘ peptides (each 5 nM) was measured by fluorescence polarization.

Data set [3] deals with Anti active SAPK1/JNK-specific polyclonal antibody, New England Biolabs NEB #9251. In words: competition with TAMRA-P1*° (5 nM) for the antibody, competitor up to 1 µM (FIG. 3).

In data set [1], “MKK7 kinase (Upstate Biotech cat. no. 14-366)” yielded an FP, 100 µM P1°, MKK7 0.005 µM, 0 h of 132 mP; an FP, 100 µM P1°, MKK7 0.005 µM, 0.5 h of 137 mP; an FP, 100 µM P1°, MKK7 0.005 µM, 1 h of 137 mP; an FP, 100 µM P1°, MKK7 0.005 µM, 1.5 h of 137 mP. Further, in data set [1], the FP, 100 µM P1°, MKK7 0.005 µM, 3 h was found to be 138 mP; the FP, 100 µM P1°, MKK7 0.02 µM, 0 h came out at 135 mP; the FP, 100 µM P1°, MKK7 0.02 µM, 0.5 h turned out to be 140 mP; the FP, 100 µM P1°, MKK7 0.02 µM, 1 h turned out to be 141 mP. In data set [1], this molecule returned an FP, 100 µM P1°, MKK7 0.02 µM, 1.5 h of 140 mP; an FP, 100 µM P1°, MKK7 0.02 µM, 3 h of 140 mP; an FP, 100 µM P1°, MKK7 0.08 µM, 0 h of 134 mP; an FP, 100 µM P1°, MKK7 0.08 µM, 0.5 h of 138 mP. In data set [1], this molecule yielded an FP, 100 µM P1°, MKK7 0.08 µM, 1 h of 136 mP; an FP, 100 µM P1°, MKK7 0.08 µM, 1.5 h of 128 mP; an FP, 100 µM P1°, MKK7 0.08 µM, 3 h of 115 mP; an FP, 100 µM P1°, MKK7 0.2 µM, 0 h of 135 mP. In data set [1], the FP, 100 µM P1°, MKK7 0.2 µM, 0.5 h is 132 mP; the FP, 100 µM P1°, MKK7 0.2 µM, 1 h came to 122 mP; the FP, 100 µM P1°, MKK7 0.2 µM, 1.5 h turned out to be 114 mP; the FP, 100 µM P1°, MKK7 0.2 µM, 3 h was found to be 105 mP. Further, in data set [1], the FP, 100 µM P1°, MKK7 0.5 µM, 0 h was determined as 135 mP; the FP, 100 µM P1°, MKK7 0.5 µM, 0.5 h is 126 mP; the FP, 100 µM P1°, MKK7 0.5 µM, 1 h amounted to 115 mP; the FP, 100 µM P1°, MKK7 0.5 µM, 1.5 h is 109 mP. In data set [1], this molecule returned an FP, 100 µM P1°, MKK7 0.5 µM, 3 h of 107 mP; an FP, 100 µM P1°, MKK7 1.0 µM, 0 h of 136 mP; an FP, 100 µM P1°, MKK7 1.0 µM, 0.5 h of 120 mP; an FP, 100 µM P1°, MKK7 1.0 µM, 1 h of 112 mP. Further, in data set [1], the FP, 100 µM P1°, MKK7 1.0 µM, 1.5 h was determined as 105 mP; the FP, 100 µM P1°, MKK7 1.0 µM, 3 h is 108 mP; the FP, NEB ab in STOP sol., MKK7 0.04 µM, 0 h stood at 147 mP; the FP, NEB ab in STOP sol., MKK7 0.04 µM, 0.5 h is 142 mP. In data set [1], this molecule came in with an FP, NEB ab in STOP sol., MKK7 0.04 µM, 1 h of 140 mP; an FP, NEB ab in STOP sol., MKK7 0.04 µM, 1.5 h of 136 mP; an FP, NEB ab in STOP sol., MKK7 0.04 µM, 2 h of 134 mP; an FP, NEB ab in STOP sol., MKK7 0.04 µM, 3 h of 138 mP. In data set [1], this molecule displayed an FP, NEB ab in STOP sol., MKK7 0.08 µM, 0 h of 143 mP; an FP, NEB ab in STOP sol., MKK7 0.08 µM, 0.5 h of 139 mP; an FP, NEB ab in STOP sol., MKK7 0.08 µM, 1 h of 134 mP; an FP, NEB ab in STOP sol., MKK7 0.08 µM, 1.5 h of 122 mP. Moreover, in data set [1], the FP, NEB ab in STOP sol., MKK7 0.08 µM, 2 h amounted to 116 mP; the FP, NEB ab in STOP sol., MKK7 0.08 µM, 3 h amounted to 125 mP; the FP, NEB ab in STOP sol., MKK7 0.2 µM, 0 h was determined as 148 mP; the FP, NEB ab in STOP sol., MKK7 0.2 µM, 0.5 h was 130 mP. In data set [1], the FP, NEB ab in STOP sol., MKK7 0.2 µM, 1 h was 114 mP; the FP, NEB ab in STOP sol., MKK7 0.2 µM, 1.5 h is 103 mP; the FP, NEB ab in STOP sol., MKK7 0.2 µM, 2 h stood at 99.2 mP; the FP, NEB ab in STOP sol., MKK7 0.2 µM, 3 h is 119 mP. In addition, in data set [1], the FP, NEB ab in reaction, MKK7 0.04 µM, 0 h was determined as 150 mP; the FP, NEB ab in reaction, MKK7 0.04 µM, 0.5 h is 128 mP; the FP, NEB ab in reaction, MKK7 0.04 µM, 1 h turned out to be 126 mP; the FP, NEB ab in reaction, MKK7 0.04 µM, 1.5 h was determined as 113 mP. Also, in data set [1], the FP, NEB ab in reaction, MKK7 0.04 µM, 2 h came out at 110 mP; the FP, NEB ab in reaction, MKK7 0.04 µM, 3 h was 78.6 mP; the FP, NEB ab in reaction, MKK7 0.08 µM, 0 h amounted to 138 mP; the FP, NEB ab in reaction, MKK7 0.08 µM, 0.5 h is 122 mP. In data set [1], this molecule showed an FP, NEB ab in reaction, MKK7 0.08 µM, 1 h of 106 mP; an FP, NEB ab in reaction, MKK7 0.08 µM, 1.5 h of 86.4 mP; an FP, NEB ab in reaction, MKK7 0.08 µM, 2 h of 84.5 mP; an FP, NEB ab in reaction, MKK7 0.08 µM, 3 h of 65 mP. In data set [1], this molecule returned an FP, NEB ab in reaction, MKK7 0.2 µM, 0 h of 137 mP; an FP, NEB ab in reaction, MKK7 0.2 µM, 0.5 h of 101 mP; an FP, NEB ab in reaction, MKK7 0.2 µM, 1 h of 83.1 mP; an FP, NEB ab in reaction, MKK7 0.2 µM, 1.5 h of 78.1 mP. For the same molecule, in data set [1], the FP, NEB ab in reaction, MKK7 0.2 µM, 2 h was determined as 72.1 mP; the FP, NEB ab in reaction, MKK7 0.2 µM, 3 h was 59.4 mP; the “Km for P1° peptide (read-out: fluorescence polarization)” value was “Km=94 nM±59 nM”; the “phosphorylation of P1° peptide substrate by MKK7 kinase” value is reported as “Efficient phosphorylation of P1° peptide is measured”.
With “TAMRA-labelled P1^∘-peptide: TAMRA-labelled mono-phosphorylated P1° peptide, control for antibody binding (KFMMTP[pY]VVTR-NH2; not fully specified (residue 5, N-terminus); also: TAMRA label, site not given here)”, in data set [2], the “binding of the polyclonal JNK antibody” value is on record as “no binding”.

B1: P1* peptide, H-Lys-Phe-Met-Met-pThr-Pro-Tyr-Val-Val-Thr-Arg-NH2 (peptide)
peptide: H-KFMM[pT]PYVVTR-NH2
SMILES: CSCC[C@H](NC(=O)[C@H](Cc1ccccc1)NC(=O)[C@@H](N)CCCCN)C(=O)N[C@@H](CCSC)C(=O)N[C@H](C(=O)N1CCC[C@H]1C(=O)N[C@@H](Cc1ccc(O)cc1)C(=O)N[C@H](C(=O)N[C@H](C(=O)N[C@H](C(=O)N[C@@H](CCCNC(=N)N)C(N)=O)[C@@H](C)O)C(C)C)C(C)C)[C@@H](C)OP(=O)(O)O
B1 displayed a percent of the bound ligand displaced in data set [3] of less than 50%.

B2: P1° peptide, H-Lys-Phe-Met-Met-Thr-Pro-pTyr-Val-Val-Thr-Arg-NH2 (peptide)
peptide: H-KFMMTP[pY]VVTR-NH2
SMILES: CSCC[C@H](NC(=O)[C@H](Cc1ccccc1)NC(=O)[C@@H](N)CCCCN)C(=O)N[C@@H](CCSC)C(=O)N[C@H](C(=O)N1CCC[C@H]1C(=O)N[C@@H](Cc1ccc(OP(=O)(O)O)cc1)C(=O)N[C@H](C(=O)N[C@H](C(=O)N[C@H](C(=O)N[C@@H](CCCNC(=N)N)C(N)=O)[C@@H](C)O)C(C)C)C(C)C)[C@@H](C)O
B2 gave a percent of the bound ligand displaced in data set [3] of less than 50%.
